Measurements published in CN110156890A (UNIV SUZHOU, dated 2019).

Key:
小鼠Sema7A蛋白 = molecular target: T1, 小鼠Sema7A蛋白 (mouse, UniProt Q9QUR8 45-646); test: western blot of mouse lung tissue
T1 construct: Endogenous protein of mouse lung tissue, denatured on a western blot; also called Semaphorin7A
T1 sequence (looked up): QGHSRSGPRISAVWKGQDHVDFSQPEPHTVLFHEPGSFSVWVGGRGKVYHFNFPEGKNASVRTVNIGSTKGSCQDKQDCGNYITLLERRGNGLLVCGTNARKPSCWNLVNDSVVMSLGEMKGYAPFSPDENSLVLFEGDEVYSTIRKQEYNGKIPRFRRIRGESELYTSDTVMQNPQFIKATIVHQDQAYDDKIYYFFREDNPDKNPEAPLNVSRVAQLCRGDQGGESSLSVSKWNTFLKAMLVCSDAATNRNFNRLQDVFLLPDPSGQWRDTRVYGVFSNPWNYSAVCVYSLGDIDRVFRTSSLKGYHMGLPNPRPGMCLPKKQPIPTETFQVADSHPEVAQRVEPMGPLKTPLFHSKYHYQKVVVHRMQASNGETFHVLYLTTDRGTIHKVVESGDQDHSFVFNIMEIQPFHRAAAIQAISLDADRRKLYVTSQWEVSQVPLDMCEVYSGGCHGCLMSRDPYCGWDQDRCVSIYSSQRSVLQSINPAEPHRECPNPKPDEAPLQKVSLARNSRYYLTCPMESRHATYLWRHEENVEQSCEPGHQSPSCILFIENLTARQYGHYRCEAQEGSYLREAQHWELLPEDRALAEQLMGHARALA

Sema7A_truncated抗原蛋白 = molecular target: T2, Sema7A_truncated抗原蛋白 (mouse, UniProt Q9QUR8 59-219); test: ELISA, 1 ug antigen coated, antibody dilution series
T2 construct: Truncated part of mouse Sema7A chosen for antigenicity, expressed in E. coli from pET28a; also called Sema7A-His; not shown: His tag from pET28a (Sema7A-His)
T2 sequence: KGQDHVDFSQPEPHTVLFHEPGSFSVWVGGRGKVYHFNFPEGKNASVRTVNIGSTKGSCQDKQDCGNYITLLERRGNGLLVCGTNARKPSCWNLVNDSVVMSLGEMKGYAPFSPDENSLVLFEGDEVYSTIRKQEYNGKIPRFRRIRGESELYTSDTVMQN

binding result (小鼠Sema7A蛋白): binds
binding result (Sema7A_truncated抗原蛋白): binds
B1: Semaphorin7A单克隆抗体2567-1 (antibody, V domains shown)
VH: QVQLQQSGAELVKPGASVKLSCKASGYTFTSYYMYWVKQRPGQGLEWIGEINPSNGDTNFNEKFKSKATLTVDKSSSTAYMQLSSLTSEDSAVYYCTTPARATFAYWGQGTLVTVSA
VL: DVVMTQTPLSLPVSLGDQASISCRSSQSLVHSNGNTYLHWYLQKPGQSPKLLIYKVSNRFSGVPDRFSGSGSGTDFTLKISRVEAEDLGVYFCSQSTHVPYTFGGGTKLEIK
notes: also called Sema7A抗体2567-1
